The values below come from patent US20120039897A1 (PHILIPPS UNIVERSITAET MARBURG, published 2012).

Test [1] addresses amyloid β peptide (antigen of the EIA of Table 2). In words: ELISA (EIA), amyloid β peptide immobilised; legend: (-) indicates no binding. Here is the method:
(§1) All transfectants that expressed immunoglobulin efficiently were tested in an ELISA based on binding to amyloid β peptide. Biosensor data is ranked on a qualitative affinity binding assessment of the antibody to the cys-dimer peptide as described below.
Aβ(1-40) monomer, Aβ(1-40) oligomer, Aβ(1-40 Cys) oligomer, and control plate using bovine serum albumin (Sigma) or Aprotinin (Sigma) were immobilized at 1 μg/ml in PBS (50 μl per well) on a Nunc Maxisorb 96-well plate overnight at 4° C. Wells were washed once with 350 μl Wash Buffer (1×PBS, 0.05% (v/v) Tween-20 (Sigma)). Wells were then blocked with Blocking Buffer (2% (w/v) Difco Skim milk (BD) in PBS, 50-150 μl per well) for 2 hours at room-temperature and washed once with 350 μl Wash Buffer.

Test [2] concerns the target T1, Aβ(1-40 Cys) oligomer (Example 12A).
T1 construct: also called Aβ(1-40 Cys) dimer; cys-dimer peptide
In words: Biacore, antibody captured on anti-human Ig chip, cys-dimer peptide injected; legend: (-) indicates no binding. Here is the method: as §1
(§2) An anti-human immunoglobulin biosensor chip was prepared using a human antibody capture kit (Biacore, Sweden) as per manufacturer's instructions at flow rate of 5 μl/min with a 6 minute contact time during […] immobilisation. Approximately 10000 resonance units were achieved on all channels.

The target of test [3] is T2, Aβ(1-40) monomer (Example 12A).
T2 construct: Sigma peptide, HFIP treated, kept in DMSO
The experiment in a line: Biacore, antibody captured on anti-human Ig chip, peptide injected. On the procedure:
as §2

Test [4] deals with T1, Aβ(1-40 Cys) oligomer (Example 12A). The description is as above. On the procedure:
as §2

amyloid β peptide (antigen of the EIA of Table 2), sequence (peptide, as listed by the source): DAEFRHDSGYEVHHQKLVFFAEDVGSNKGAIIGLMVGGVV
T1 sequence (peptide, as listed by the source): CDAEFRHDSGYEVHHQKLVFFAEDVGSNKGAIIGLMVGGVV

B1: recombinant Aβ(21-37) autoantibody 54/62 (antibody, V domains shown)
VH: EVQLVESGGGVVQPGGSLRLSCAASGFTFSSYWMSWVRQAPGKGLEWVASVKQDGSEKYYVDSVKGRFTISRDNAKNTLYLQMNSLRAEDTAVYYCARDGSSWYRDWFDPWGQGTLVTVS
VL: DIVLTQSPATLSLSPGERVTITCRASQSVNSYLAWYQQKPGQAPRLLIYGASTRATGIPDRFSGSGSGTDFTLTISRLEPEDFAVYYCQQYGSSQGTFGPGTKVDIKR
With B1, the results for the binding result in test [1] and in test [2] were “no binding (tested: 100 µg/ml starting concentration)” and “no binding (tested: peptide 20-50 µg/ml)”, respectively.

B2: recombinant Aβ(21-37) autoantibody 50/62 (antibody, V domains shown)
VH: EVQLVESGGGVVQPGGSLRLSCAASGFTFSSYWMSWVRQAPGKGLEWVASVKQDGSEKYYVDSVKGRFTISRDNAKNTLYLQMNSLRAEDTAVYYCARDGSSWYRDWFDPWGQGTLVTVS
VL: DIQMTQSPATLSLSPGERAALSCRASQSVNSYLAWYQQKPGQAPRLLIYGAASRATGIPARFSGSGSGTDFTLTISRLEPEDFAVYYCQQYGSSQGTFGPGTKVDIKR
Take B2: the binding result in test [1] was “no binding (tested: 100 µg/ml starting concentration)”; in test [2], “no binding (tested: peptide 20-50 µg/ml)”.

B3: recombinant Aβ(21-37) autoantibody 55/68 (antibody, V domains shown)
VH: EVQLVESGGGVVQPGGSLRLSCAASGITFRSYDMSWVRQAPGKGLEWVASVKQDGSEKYYVDSVKGRFTVSRDNAKNTLYLQMNSLRAEDTAVYYCARDAGRWADLAFDIWGQGTLVTVS
VL: DIQMTQSPGTLSLSPGERAALSCRASQSVSSYLAWYQQKPGQAPRLLIYAASIRATGIPDRFSGSGSGTDFTLTISRLEPEDFAVYYCQQYGSSQGTFGPGTKVDIKR
B3: the binding result in test [1] was “no binding (tested: 100 µg/ml starting concentration)”; in test [2] it was “no binding (tested: peptide 20-50 µg/ml)”.

B4: recombinant Aβ(21-37) autoantibody 50/67 (antibody, V domains shown)
VH: EVQLVESGGGVVQPGGSLRLSCAASGFTFRSYWMHWVRQAPGKGLEWVASVKQDGSEKYYVDSVKGRVTISLDTSKNQFSLKLSSVTAADTAVYYCARDGSSWYRDWFDPWGQGTLVSVS
VL: DIQMTQSPATLSLSPGERAALSCRASQSVNSYLAWYQQKPGQAPRLLIYGAASRATGIPARFSGSGSGTDFTLTISRLEPEDFAVYYCQQYGSSQGTFGPGTKVDIKR
Consider B4, for which the binding result was “no binding (tested: 100 µg/ml starting concentration)” in test [1] and “no binding (tested: peptide 20-50 µg/ml)” in test [2].

B5: recombinant Aβ(21-37) autoantibody 51/62 (antibody, V domains shown)
VH: EVQLVESGGGVVQPGGSLRLSCAASGFTFSSYWMSWVRQAPGKGLEWVASVKQDGSEKYYVDSVKGRFTISRDNAKNTLYLQMNSLRAEDTAVYYCARDGSSWYRDWFDPWGQGTLVTVS
VL: EIVLTQSPATLSLSPGERVTITCRESQGIRNYLAWYQQKPGQAPRLLIYGASTRATGIPDRFSGSGSGTDFTLTISRLEPEDFAVYYCQQYGSSQGTFGPGTKVDIKR
For the molecule B5, the binding result in test [1] is “no binding (tested: 100 µg/ml starting concentration)”; in test [2] it was “no binding (tested: peptide 20-50 µg/ml)”.

B6: recombinant Aβ(21-37) autoantibody 47/56 (antibody, V domains shown)
VH: EVQLVESGGGVVQPGGSLRLSCAASGFTFRSYWMSWVRQAPGKGLEWVASVKQDGSEKYYVDSVKGRFTISRDTSKNTLYLQMNSLRAEDTAVYYCARDASSWYRDWFDPWGQGTLVTVS
VL: EIVLTQSPATLSLSPGERVTITCRASQSVNSYLAWYQQKPGQAPRLLIYGASTRATGIPDRFSGSGSGTDFTLTISRLEPEDFAVYYCQQYGSSQGTFGPGTKVDIKR
On to B6, for which the binding result in test [3] is given as “no binding”; in test [4], “no binding”; in test [1], “no binding (tested: 100 µg/ml starting concentration)”.

B7: recombinant Aβ(21-37) autoantibody 55/69 (antibody, V domains shown)
VH: EVQLVESGGGVVQPGGSLRLSCAASGFTFRSYWMHWVRQAPGKGLEWVASVKQDGSEKYYVDSVKGRVTITADRAKNTLYLQMNSLRAEDTAVYYCARDGSSWYRDWFDPWGQGTLVTVS
VL: DIQMTQSPGTLSLSPGERAALSCRASQSVSSYLAWYQQKPGQAPRLLIYAASIRATGIPDRFSGSGSGTDFTLTISRLEPEDFAVYYCQQYGSSQGTFGPGTKVDIKR
Consider B7, for which the figures for the binding result in test [1] and in test [2] were “no binding (tested: 100 µg/ml starting concentration)” and “no binding (tested: peptide 20-50 µg/ml)”, respectively.

B8: recombinant Aβ(21-37) autoantibody 54/68 (antibody, V domains shown)
VH: EVQLVESGGGVVQPGGSLRLSCAASGITFRSYDMSWVRQAPGKGLEWVASVKQDGSEKYYVDSVKGRFTVSRDNAKNTLYLQMNSLRAEDTAVYYCARDAGRWADLAFDIWGQGTLVTVS
VL: DIVLTQSPATLSLSPGERVTITCRASQSVNSYLAWYQQKPGQAPRLLIYGASTRATGIPDRFSGSGSGTDFTLTISRLEPEDFAVYYCQQYGSSQGTFGPGTKVDIKR
For B8, the binding result in test [1] is listed as “no binding (tested: 100 µg/ml starting concentration)”; in test [2], “no binding (tested: peptide 20-50 µg/ml)”.

B9: recombinant Aβ(21-37) autoantibody 50/69 (antibody, V domains shown)
VH: EVQLVESGGGVVQPGGSLRLSCAASGFTFRSYWMHWVRQAPGKGLEWVASVKQDGSEKYYVDSVKGRVTITADRAKNTLYLQMNSLRAEDTAVYYCARDGSSWYRDWFDPWGQGTLVTVS
VL: DIQMTQSPATLSLSPGERAALSCRASQSVNSYLAWYQQKPGQAPRLLIYGAASRATGIPARFSGSGSGTDFTLTISRLEPEDFAVYYCQQYGSSQGTFGPGTKVDIKR
With B9, the binding result in test [1] is “no binding (tested: 100 µg/ml starting concentration)”.

B10: recombinant Aβ(21-37) autoantibody 55/62 (antibody, V domains shown)
VH: EVQLVESGGGVVQPGGSLRLSCAASGFTFSSYWMSWVRQAPGKGLEWVASVKQDGSEKYYVDSVKGRFTISRDNAKNTLYLQMNSLRAEDTAVYYCARDGSSWYRDWFDPWGQGTLVTVS
VL: DIQMTQSPGTLSLSPGERAALSCRASQSVSSYLAWYQQKPGQAPRLLIYAASIRATGIPDRFSGSGSGTDFTLTISRLEPEDFAVYYCQQYGSSQGTFGPGTKVDIKR
As for B10, the values for the binding result in test [1] and in test [2] were “no binding (tested: 100 µg/ml starting concentration)” and “no binding (tested: peptide 20-50 µg/ml)”, respectively.

B11: recombinant Aβ(21-37) autoantibody 50/68 (antibody, V domains shown)
VH: EVQLVESGGGVVQPGGSLRLSCAASGITFRSYDMSWVRQAPGKGLEWVASVKQDGSEKYYVDSVKGRFTVSRDNAKNTLYLQMNSLRAEDTAVYYCARDAGRWADLAFDIWGQGTLVTVS
VL: DIQMTQSPATLSLSPGERAALSCRASQSVNSYLAWYQQKPGQAPRLLIYGAASRATGIPARFSGSGSGTDFTLTISRLEPEDFAVYYCQQYGSSQGTFGPGTKVDIKR
Regarding B11, the binding result was “no binding (tested: 100 µg/ml starting concentration)” in test [1] and “no binding (tested: peptide 20-50 µg/ml)” in test [2].
